Measurements reported in article PMC3963918, “CCHCR1 Interacts Specifically with the E2 Protein of Human Papillomavirus Type 16 on a Surface Overlapping BRD4 Binding” (PLoS ONE, 2014).

B1: unnamed (parent)
chain 1: METLCQRLNVCQDKILTHYENDSTDLRDHIDYWKHMRLECAIYYKAREMGFKHINHQVVPTLAVSKNKALQAIELQLTLETIYNSQYSNEKWTLQDVSLEVYLTAPTGCIKKHGYTVEVQFDGDICNTMHYTNWTHIYICEEASVTVVEGQVDYYGLYYVHEGIRTYFVQFKDDAEKYSKNKVWEVHAGGQVILCPTSVFSSNEVSSPEIIRQHLANHPAATHTKAVALGTEETQTTIQRPRSEPDTGNPCHTTKLLHRDSVDSAPILTAFNSSHKGRINCNSNTTPIVHLKGDANTLKCLRYRFKKHCTLYTAVSSTWHWTGHNVKHKSAIVTLTYDSEWQRDQFLSQVKIPKTITVSTGFMSI
chain 2: MDQNNSLPPYAQGLASPQGAMTPGIPIFSPMMPYGTGLTPQPIQNTNSLSILEEQQRQQQQQQQQQQQQQQQQQQQQQQQQQQQQQQQQQQQQQQAVAAAAVQQSTSQQATQGTSGQAPQLFHSQTLTTAPLPGTTPLYPSPMTPMTPITPATPASESSGIVPQLQNIVSTVNLGCKLDLKTIALRARNAEYNPKRFAAVIMRIREPRTTALIFSSGKMVCTGAKSEEQSRLAARKYARVVQKLGFPAKFLDFKIQNMVGSCDVKFPIRLEGLVLTHQQFSSYEPELFPGLIYRMIKPRIVLLIFVSGKVVLTGAKVRAEIYEAFENIYPILKGFRKTT
B2: unnamed (parent)
chain 1: B1 chain 1
chain 2: KAGRAEAEGLRAALAGAEVVRKNLEEGSQRELEEVQRLHQEQLSSLTQAHEEALSSLTSKAEGLEKSLSSLETRRAGEAKELAEAQREAELLRKQLSKTQEDLEAQVTLVENLRKYVGEQVPSEVHSQTWELERQKLLETMQHLQEDRDSLHATAELLQVRVQSLTHILALQEEELTRKVQPSDSLEPEFTRKCQSLLNRWREKVFALMVQLKAQELEHSDSVKQLKGQVASLQEKVTSQSQEQAILQRSLQDKAAEVEVERMGAKGLQLELSRAQEARRRWQQQTASAEEQLRLVVNAVSSSQIWLETTMAKVEGAAAQLPSLNNRLSYAVRKVHTIRGLIARKLALAQLRQESCPLPPPVTDVSLELQQLREERNRLDAELQLSARLIQQEVGRAREQGEAERQQLSKVAQQLEQELQQTQESLASLGLQLEVARQGQQESTEEAASLRQELTQQQELYGQALQEKVAEVETRLREQLSDTERRLNEARREHAKAVVSLRQIQRRAAQEKERSQELRRLQEEARKEEGQRLARRLQELERDKNLMLATLQQEGLLSRYKQQRLLTVLPSLLDKKKSVVSSPRPPECSASAPVAAAVPTRESIKGSLSVLLDDLQDLSEAISKEEAVCQGDNLDRCSSSNPQMSS

Variants of: B1
Test: GPCA
Conditions: with partner chain of the complex shown;; read off a plot

Row | Variant | ratio to parent
1 | chain 1 I73A | 0.97
2 | chain 1 N181T | 0.95
3 | chain 1 E39A | 1.2
4 | chain 1 R27D | 0.91
5 | chain 1 R37A | 1.1

Variants of: B2
Test: GPCA
Conditions: with partner chain of the complex shown;; read off a plot

Row | Variant | ratio to parent
6 | chain 1 E39A | 0.92
7 | chain 1 I73A | 0.11
8 | chain 1 R27D | 0.66
9 | chain 1 N181T | 0.93
10 | chain 1 R37A | 0.06
